Reference: article PMC1626108

Key:
[1] = target: Hexokinase type I (HKI) (UniProt P17710)
[2] = target: T1, Recombinant Cox11, purified (mouse) (UniProt Q6P8I6)
T1 sequence (Q6P8I6 whole entry, looked up): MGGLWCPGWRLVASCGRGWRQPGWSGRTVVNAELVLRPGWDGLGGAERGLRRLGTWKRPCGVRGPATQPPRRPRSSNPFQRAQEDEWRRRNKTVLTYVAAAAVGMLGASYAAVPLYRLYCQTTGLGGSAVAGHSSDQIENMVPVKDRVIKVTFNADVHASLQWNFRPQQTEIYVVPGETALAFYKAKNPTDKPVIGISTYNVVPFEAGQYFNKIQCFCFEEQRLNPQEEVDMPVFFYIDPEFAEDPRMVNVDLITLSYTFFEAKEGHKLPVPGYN

Chain of UniProt P17710 (P17710 other isoform, or with tags, fused parts or gaps): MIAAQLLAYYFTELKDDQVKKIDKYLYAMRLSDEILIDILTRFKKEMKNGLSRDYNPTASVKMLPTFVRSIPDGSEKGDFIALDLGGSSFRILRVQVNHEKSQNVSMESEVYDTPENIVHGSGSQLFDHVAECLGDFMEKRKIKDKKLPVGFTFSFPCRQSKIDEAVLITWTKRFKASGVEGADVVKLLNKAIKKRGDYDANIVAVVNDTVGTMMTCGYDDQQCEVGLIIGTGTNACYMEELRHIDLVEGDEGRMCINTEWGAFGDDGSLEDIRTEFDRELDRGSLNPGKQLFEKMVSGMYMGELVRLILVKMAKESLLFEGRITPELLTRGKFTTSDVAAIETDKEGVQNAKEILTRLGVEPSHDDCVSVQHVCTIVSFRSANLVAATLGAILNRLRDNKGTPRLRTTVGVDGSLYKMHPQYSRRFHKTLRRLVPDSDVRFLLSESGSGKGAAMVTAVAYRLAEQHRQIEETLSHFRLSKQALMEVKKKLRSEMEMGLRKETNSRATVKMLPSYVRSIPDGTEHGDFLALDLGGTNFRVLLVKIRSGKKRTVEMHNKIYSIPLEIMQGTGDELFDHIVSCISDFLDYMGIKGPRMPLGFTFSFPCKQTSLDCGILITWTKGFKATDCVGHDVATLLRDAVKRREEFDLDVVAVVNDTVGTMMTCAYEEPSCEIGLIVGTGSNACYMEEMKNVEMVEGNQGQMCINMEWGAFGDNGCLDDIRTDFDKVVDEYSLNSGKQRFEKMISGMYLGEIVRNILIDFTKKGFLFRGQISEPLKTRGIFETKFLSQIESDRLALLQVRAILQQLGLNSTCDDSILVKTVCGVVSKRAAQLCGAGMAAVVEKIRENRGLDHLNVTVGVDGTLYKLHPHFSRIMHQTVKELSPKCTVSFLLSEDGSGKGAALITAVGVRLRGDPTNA

Substance | HKI enzymatic activity (initial rates versus glucose, 0.24 ug HKI) with 0.25, 7.5 and 15 nM Cox11; concentration of Cox11 at which no activity was recorded [1] [nM] | reversal by increasing LD of the inhibition of HKI activity by 7.5 nM Cox11 at saturating glucose; half-maximal effect [2] [nM]
Recombinant Cox11, purified (from UniProt Q6P8I6 75-275) (natural protein) | 15 | –
GST-LD, leucine-rich domain of RanBP2 fused to glutathione S-transferase (from UniProt P49792 62-711) (domain or fragment) | – | 0.05
